Literature values, collected in PMC5883021.

Target: F-actin (Oryctolagus cuniculus) (UniProt P68135)

Kd: 7.39 µM
Substance: TAGLN2 (from UniProt P37802)
